Laboratory results: patent publication EP0691409B1

Target: mutant pro-urokinase (human) (UniProt P00749)
Assay: cell-based or functional assay

Row | activated MMP (ΔA/h^2*1000); time 0 h, 0.15 µM modified pro-urokinase | activated MMP (ΔA/h^2*1000); time 1 h | activated MMP (ΔA/h^2*1000); time 2 h | activated MMP (ΔA/h^2*1000); time 3 h | activated MMP (ΔA/h^2*1000); time 4 h | activated MMP (ΔA/h^2*1000); time 6.5 h | activated MMP (ΔA/h^2*1000); time 24 h | activated MMP (ΔA/h^2*1000); time 31 h | activated MMP (ΔA/h^2*1000); time 48 h | activated MMP (ΔA/h^2*1000); time 48 h + EDTA | not activated MMP (ΔA/h^2*1000); time 0 h, 0.15 µM modified pro-urokinase | not activated MMP (ΔA/h^2*1000); time 1 h | not activated MMP (ΔA/h^2*1000); time 2 h | not activated MMP (ΔA/h^2*1000); time 3 h | not activated MMP (ΔA/h^2*1000); time 4 h | not activated MMP (ΔA/h^2*1000); time 6.5 h | not activated MMP (ΔA/h^2*1000); time 24 h | not activated MMP (ΔA/h^2*1000); time 31 h | not activated MMP (ΔA/h^2*1000); time 48 h | not activated MMP (ΔA/h^2*1000); time 48 h + EDTA | Substance
1 | < 0.05 ΔA/h^2·1000 | 0.3 ΔA/h^2·1000 | < 0.05 ΔA/h^2·1000 | < 0.05 ΔA/h^2·1000 | 1.1 ΔA/h^2·1000 | 1.3 ΔA/h^2·1000 | 3.6 ΔA/h^2·1000 | 35.9 ΔA/h^2·1000 | 48.9 ΔA/h^2·1000 | < 0.05 ΔA/h^2·1000 |  |  |  |  |  |  |  |  |  |  | mixture of human MMP2 and MMP9, activated with APMA
2 |  |  |  |  |  |  |  |  |  |  | < 0.05 ΔA/h^2·1000 | < 0.05 ΔA/h^2·1000 | < 0.05 ΔA/h^2·1000 | < 0.05 ΔA/h^2·1000 | < 0.05 ΔA/h^2·1000 | < 0.05 ΔA/h^2·1000 | 1 ΔA/h^2·1000 | 2.1 ΔA/h^2·1000 | 14 ΔA/h^2·1000 | < 0.05 ΔA/h^2·1000 | mixture of human MMP2 and MMP9, not activated
